# Target: NS3h wt (NS3 helicase domain) (Hepatitis C virus JFH1 (genotype 2a), UniProt Q99IB8 1218-1662)
# Assay: fluorescence polarization; probe; Kd of 5 nM only assumed for fit; FP competition: 15 nM NS3h, 15 nM Cy5-dT15, 25 mM MOPS pH 7.5, 1.25 mM MgCl2, 0.0025 mg/ml BSA, 0.005% Tween20, 0.025 mM DTT, 0-2000 nM competitor, 20 min, 23 C
# Settings: protein: recombinant; tags: C-terminal His tag; label: 5' Cy5
# NS3h wt (NS3 helicase domain), sequence (Q99IB8 1218-1662): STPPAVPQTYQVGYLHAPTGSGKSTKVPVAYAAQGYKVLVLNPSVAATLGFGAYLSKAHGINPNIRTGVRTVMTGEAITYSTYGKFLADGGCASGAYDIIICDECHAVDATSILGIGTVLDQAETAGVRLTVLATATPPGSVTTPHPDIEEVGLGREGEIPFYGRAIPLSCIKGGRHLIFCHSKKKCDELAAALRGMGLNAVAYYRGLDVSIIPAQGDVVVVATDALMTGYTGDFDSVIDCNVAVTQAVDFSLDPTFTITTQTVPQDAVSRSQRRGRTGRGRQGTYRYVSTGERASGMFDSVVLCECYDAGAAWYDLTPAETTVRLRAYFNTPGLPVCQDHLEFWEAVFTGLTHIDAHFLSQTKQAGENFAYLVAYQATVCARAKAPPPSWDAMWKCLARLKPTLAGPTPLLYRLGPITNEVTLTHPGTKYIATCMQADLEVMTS
binder,measurement,value
TTTTTTTTTTTTTTT (ssDNA) [Cy5-dT15],binding result,binds
